Measurements from US20220048991A1 (BIOND BIOLOGICS, published 2022).
Residue numbers refer to the chain shown, from its start. Numbers in names are those of the source.

B1: 15G8-23 (humanized 15G8, VH2/Vk3) (antibody, human IgG4 S228P, kappa, V domains shown)
VH: DVQLQGSGPGLVKPSETLSLTCSVTGYSITSGYYWNWIRQFPGKKLEWMGYISYDGSNNYNPSLKNRITISRDTSKNQFSLKLSSVTAADTATYYCAHGYSYYYAMDAWGQGTTVTVSS
VL: DIQMTQSPSSLSASVGDRVTITCRTSQDISNYLNWYQQKPGKAVKLLISYTSRLHSGVPSRFSGSGSGTDYTLTISSLQPEDFATYYCQQGNTLPTFGQGTKLEIKR
notes: Humanized IgG4 (S228P, L235E), kappa
B2: humanized 15G8 VH4/Vk2 (antibody, IgG4, V domains shown)
VH: B1 VH with D1Q, F41P, K45G, I68V
VL: DIQMTQSPSSLSASVGDRVTITCRTSQDISNYLNWYQQKPGKAVKLLISYTSRLHSGVPSRFSGSGSGTDYTLTISSLQPEDFATYFCQQGNTLPTFGQGTKLEIK
notes: Humanized IgG4 (S228P, L235E), kappa; tested as supernatant of transiently transfected HEK EBNA cells
B3: humanized 15G8 VH5/Vk1 (antibody, IgG4, V domains shown)
VH: B1 VH with D1Q, S23T, F41P, K45G, M49I, I68V
VL: B2 VL with P8T, P80Q
notes: as for B2
B4: humanized 15G8 VH5/Vk2 (antibody, IgG4, V domains shown)
VH: B1 VH with D1Q, S23T, F41P, K45G, M49I, I68V
VL: B2 VL
notes: as for B2
B5: humanized 15G8 VH2/Vk1 (antibody, IgG4, V domains shown)
VH: B1 VH
VL: B2 VL with P8T, P80Q
notes: as for B2
B6: humanized 15G8 VH1/Vk2 (antibody, IgG4, V domains shown)
VH: B1 VH with S84N, T114S
VL: B2 VL
notes: as for B2
B7: 15G8-44 (humanized 15G8, VH4/Vk4) (antibody, IgG4, V domains shown)
VH: B1 VH with D1Q, F41P, K45G, I68V
VL: B2 VL with V44P
notes: as for B1
B8: 15G8-34 (humanized 15G8, VH3/Vk4) (antibody, IgG4, V domains shown)
VH: B1 VH with F41P, K45G
VL: B2 VL with V44P
notes: as for B1
B9: humanized 15G8 VH4/Vk3 (antibody, IgG4, V domains shown)
VH: B1 VH with D1Q, F41P, K45G, I68V
VL: B2 VL with F87Y
notes: as for B2
B10: humanized 15G8 VH2/Vk2 (antibody, IgG4, V domains shown)
VH: B1 VH
VL: B2 VL
notes: as for B2
B11: humanized 15G8 VH4/Vk1 (antibody, IgG4, V domains shown)
VH: B1 VH with D1Q, F41P, K45G, I68V
VL: B2 VL with P8T, P80Q
notes: as for B2
B12: humanized 15G8 VH3/Vk1 (antibody, IgG4, V domains shown)
VH: B1 VH with F41P, K45G
VL: B2 VL with P8T, P80Q
notes: as for B2
B13: humanized 15G8 VH3/Vk3 (antibody, IgG4, V domains shown)
VH: B1 VH with F41P, K45G
VL: B2 VL with F87Y
notes: as for B2
B14: 15G8-32 (humanized 15G8, VH3/Vk2) (antibody, human IgG4 S228P, kappa, V domains shown)
VH: B1 VH with F41P, K45G
VL: B1 VL with Y87F
notes: as for B1
B15: humanized 15G8 VH2/Vk4 (antibody, IgG4, V domains shown)
VH: B1 VH
VL: B2 VL with V44P
notes: as for B2
B16: 15G8-53 (humanized 15G8, VH5/Vk3) (antibody, human IgG4 S228P, kappa, V domains shown)
VH: B1 VH with D1Q, S23T, F41P, K45G, M49I, I68V
VL: B1 VL
notes: as for B1
B17: humanized 15G8 VH1/Vk1 (antibody, IgG4, V domains shown)
VH: B1 VH with S84N, T114S
VL: B2 VL with P8T, P80Q
notes: as for B2
B18: humanized 15G8 VH1/Vk4 (antibody, IgG4, V domains shown)
VH: B1 VH with S84N, T114S
VL: B2 VL with V44P
notes: as for B2
B19: 15G8-54 (humanized 15G8, VH5/Vk4) (antibody, IgG4, V domains shown)
VH: B1 VH with D1Q, S23T, F41P, K45G, M49I, I68V
VL: B2 VL with V44P
notes: as for B1

molecular target: T1, recombinant ILT2 (human) (human, UniProt Q8NHL6 24-461); assay: SPR (Biacore T200), HEK EBNA supernatants on recombinant ILT2 peptide
T1 construct: also called recombinant ILT2 peptide; ILT2 protein
Method: (§1) During grafting of the 15G8 CDRs, five heavy chains and four kappa light chains were generated. These chains were designated VH1-5 and Vk1-4. By combining each heavy chain with each light chain twenty different resultant antibodies are possible. All twenty possible antibodies were transiently expressed in HEK EBNA cells, and the supernatants were tested for binding to recombinant ILT2 peptide using a Biacore T200. The chimeric 15G8 antibody was used as control.

T1 sequence (Q8NHL6 24-461 limits assumed): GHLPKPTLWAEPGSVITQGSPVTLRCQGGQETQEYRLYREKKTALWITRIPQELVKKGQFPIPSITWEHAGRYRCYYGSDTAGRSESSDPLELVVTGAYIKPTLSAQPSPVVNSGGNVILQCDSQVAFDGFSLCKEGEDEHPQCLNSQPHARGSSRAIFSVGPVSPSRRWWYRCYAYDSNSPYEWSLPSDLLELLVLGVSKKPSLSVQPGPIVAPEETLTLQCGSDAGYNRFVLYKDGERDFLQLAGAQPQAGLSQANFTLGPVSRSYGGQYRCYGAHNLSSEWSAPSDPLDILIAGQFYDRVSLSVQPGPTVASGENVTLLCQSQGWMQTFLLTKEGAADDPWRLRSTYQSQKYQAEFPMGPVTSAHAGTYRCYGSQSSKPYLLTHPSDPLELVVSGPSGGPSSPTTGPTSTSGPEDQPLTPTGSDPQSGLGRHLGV

Row | Kd [nM] | koff [s⁻¹] | kon [M⁻¹ s⁻¹] | Binder
1 | 8.31 | 0.0076 | 915000 | B1
2 | 9.93 | 0.00685 | 690000 | B2
3 | 8.55 | 0.00994 | 1.16e+06 | B3
4 | 7.57 | 0.00954 | 1.26e+06 | B4
5 | 9.58 | 0.00728 | 760000 | B5
6 | 8.82 | 0.00678 | 769000 | B6
7 | 13.5 | 0.00977 | 724000 | B7
8 | 12.6 | 0.00832 | 661000 | B8
9 | 9.51 | 0.00843 | 886000 | B9
10 | 8.79 | 0.0066 | 752000 | B10
11 | 8.66 | 0.00792 | 915000 | B11
12 | 8.52 | 0.00681 | 799000 | B12
13 | 9.03 | 0.00611 | 677000 | B13
14 | 8.19 | 0.00664 | 811000 | B14
15 | 14.2 | 0.00789 | 554000 | B15
16 | 10.6 | 0.0072 | 682000 | B16
17 | 8.77 | 0.00931 | 1.06e+06 | B17
18 | 18.7 | 0.00854 | 457000 | B18
19 | 10.3 | 0.0117 | 1.14e+06 | B19

molecular target: T1, recombinant ILT2 (human); assay: SPR (Biacore T200); KD relative to Control (chimeric 15G8)
Method: as §1

Row | Relative KD | Binder
20 | 0.66 | B1
21 | 0.79 | B2
22 | 0.68 | B3
23 | 0.6 | B4
24 | 0.76 | B5
25 | 0.7 | B6
26 | 1.07 | B7
27 | 1 | B8
28 | 0.75 | B9
29 | 0.7 | B10
30 | 0.69 | B11
31 | 0.68 | B12
32 | 0.72 | B13
33 | 0.65 | B14
34 | 1.13 | B15
35 | 0.84 | B16
36 | 0.7 | B17
37 | 1.48 | B18
38 | 0.82 | B19
